The target in experiment [1] is T1, human CD45 on human peripheral blood mononuclear cells (PBMCs) (human, UniProt P08575 26-1306).
T1 construct: whole, on cells; The target is inferred from the cells used (CD45+ human PBMCs); also called hCD45
T1 sequence (looked up): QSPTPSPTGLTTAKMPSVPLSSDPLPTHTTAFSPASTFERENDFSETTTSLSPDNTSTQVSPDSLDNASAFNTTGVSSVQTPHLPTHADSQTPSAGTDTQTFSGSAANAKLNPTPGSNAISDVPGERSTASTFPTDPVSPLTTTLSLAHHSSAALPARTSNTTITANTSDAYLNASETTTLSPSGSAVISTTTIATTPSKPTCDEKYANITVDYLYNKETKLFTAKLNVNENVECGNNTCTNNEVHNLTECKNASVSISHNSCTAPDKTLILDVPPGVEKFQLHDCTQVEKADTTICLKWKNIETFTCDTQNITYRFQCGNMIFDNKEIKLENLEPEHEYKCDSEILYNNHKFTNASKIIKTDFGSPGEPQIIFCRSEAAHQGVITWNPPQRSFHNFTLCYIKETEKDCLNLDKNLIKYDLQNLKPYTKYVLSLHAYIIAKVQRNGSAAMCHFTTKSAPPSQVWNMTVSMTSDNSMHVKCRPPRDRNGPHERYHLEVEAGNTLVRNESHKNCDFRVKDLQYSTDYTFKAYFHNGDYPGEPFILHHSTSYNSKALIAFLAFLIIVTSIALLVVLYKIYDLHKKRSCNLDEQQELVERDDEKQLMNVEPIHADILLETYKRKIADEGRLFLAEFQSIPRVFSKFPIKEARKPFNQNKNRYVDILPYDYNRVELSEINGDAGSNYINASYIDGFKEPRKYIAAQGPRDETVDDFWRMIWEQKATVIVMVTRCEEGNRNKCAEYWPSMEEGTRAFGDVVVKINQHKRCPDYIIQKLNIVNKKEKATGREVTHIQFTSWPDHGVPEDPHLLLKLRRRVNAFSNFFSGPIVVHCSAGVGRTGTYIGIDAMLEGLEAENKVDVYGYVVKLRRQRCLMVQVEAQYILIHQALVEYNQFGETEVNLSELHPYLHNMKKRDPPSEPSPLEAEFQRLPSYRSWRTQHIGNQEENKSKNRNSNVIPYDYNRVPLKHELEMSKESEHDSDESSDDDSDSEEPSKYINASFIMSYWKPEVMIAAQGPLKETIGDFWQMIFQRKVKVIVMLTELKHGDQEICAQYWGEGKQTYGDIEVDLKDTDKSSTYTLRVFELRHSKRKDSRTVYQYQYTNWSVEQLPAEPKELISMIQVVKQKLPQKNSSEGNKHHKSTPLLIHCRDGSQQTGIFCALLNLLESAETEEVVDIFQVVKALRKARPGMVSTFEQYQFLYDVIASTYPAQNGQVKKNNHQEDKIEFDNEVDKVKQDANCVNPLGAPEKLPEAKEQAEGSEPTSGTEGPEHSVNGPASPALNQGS
Nature of the experiment: flow cytometry on human PBMCs. A general note: A flow cytometer gives signals particle by particle.

Experiment [2] addresses T1, human CD45 on human peripheral blood …. In words: flow cytometry, staining of human PBMCs with different concentrations of the minibody.

B1: CD45 minibody (anti-human CD45 antibody fragment, clone BC8 scFv fused to the IgG1 CH3 domain) (other)
chain: QVQLVESGGGLVQPGGSLKLSCAASGFDFSRYWMSWVRQAPGKGLEWIGEINPTSSTINFTPSLKDKVFISRDNAKNTLYLQMSKVRSEDTALYYCARGNYYRYGDAMDYWGQGTSVTVSKISGGGGSGGGGSGGGGSGGGGSGGGGSSDIVLTQSPASLAVSLGQRATISCRASKSVSTSGYSYLHWYQQKPGQPPKLLIYLASNLESGVPARFSGSGSGTDFTLNIHPVEEEDAATYYCQHSRELPFTFGSGTKLEIKGGGSEPKSPKSADKTHTAPQPREPQVYTLPPSRDELTKNQVSLTCLVKGFYPSDIAVEWESNGQPENNYKTTPPVLDSDGSFFLYSKLTVDKSRWQQGNVFSCSVMHEALHNHYTQKSLSLSPGKDYKDDDKHHHHHH
notes: also called anti-CD45-minibody probe; human CD45-PET probe
What is called EC50 is the concentration that produces a half-maximal response. Lower therefore signals greater potency. On to B1, for which the EC50 in experiment [1] is around 5 nM; in experiment [2] it was around 10 nM.
